These results are taken from article PMC3823998, “Structural and Functional Characterization of the Redβ Recombinase from Bacteriophage λ” (PLoS ONE, 2013).

For the data set, the target named is T1, Redβ V77A (Bacteriophage λ (Enterobacteria phage λ), UniProt P03698 1-261, V77A).
T1 sequence: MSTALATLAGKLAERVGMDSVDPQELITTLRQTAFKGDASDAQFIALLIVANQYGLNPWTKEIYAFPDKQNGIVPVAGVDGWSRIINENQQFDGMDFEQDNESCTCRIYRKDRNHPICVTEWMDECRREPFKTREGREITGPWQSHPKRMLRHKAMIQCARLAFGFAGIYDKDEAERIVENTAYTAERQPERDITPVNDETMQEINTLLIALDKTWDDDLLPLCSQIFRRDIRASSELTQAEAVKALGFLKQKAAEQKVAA
Briefly: EMSA; glutaraldehyde-fixed; ssDNA EMSA: 10 nM DNA, 50 mM potassium phosphate pH 6.0, 5 mM EDTA, 5% glycerol, 0.1 mg/ml BSA, 37°C, 40 min, then 0.1% glutaraldehyde; second-strand EMSA: 5 nM each strand, 20 mM Tris-HCl pH 7.5, 5 mM MgCl2, 1 mM DTT, 0.1 mg/ml BSA, 37°C. The settings on record: protein: recombinant; tags: His6 removed; N-terminal GSH left; label: 5' Cy3. In general terms: In EMSA bound probe runs differently from free probe, usually more slowly.

Consider TGCGGATGGCTTAGAGCTTAATTGCTGAATCTGGTGCTGTAGCTCAACAT (ssDNA) [50-minus ssDNA], for which the binding signal is 11 % of WT binding at 3 µM protein.
